Assay results from PMC5134833, “The amyloid-beta forming tripeptide cleavage mechanism of γ-secretase” (eLife, 2016).

Biological target: T1, γ-secretase (Homo sapiens, UniProt P49768)
T1 construct: made in house; host or cells: suspension HEK cells (Freestyle 293), transiently transfected
Test: In vitro γ-secretase assay (purified γ-secretase in proteoliposomes cleaving recombinant C100-FLAG substrate)
Type: biochemical
Details: C100-FLAG 500 nM, Figure 1B, 1F
Experimental: Purified γ-secretase was incorporated into vesicles by first dissolving total brain lipid extract (1.25 mM final) in 50 mM HEPES pH 7.0, 150 mM NaCl, 0.25% CHAPSO. γ-Secretase (5–30 nM final concentration) was then added to the solution and detergent removed by mixing SM-2 biobeads (62 mg/mL) (Bio-Rad) with the lipid/detergent/enzyme solution for two hrs at 4°C. Biobeads were removed from the newly formed proteoliposomes and reactions were initiated with the addition of purified recombinant substrate C100-FLAG substrate. Reactions were quenched with SDS loading dye for western blot or centrifuged for ELISA or mass spectrometry on Aβ or AICD fragments, respectively.
For inhibition studies, tripeptide fragments or inhibitors were dissolved in DMSO prior to being diluted into the reaction buffer. The concentration of C100-FLAG used in all in vitro assays was 500 nM unless otherwise stated.
Tripeptide IC50 inhibition was fit to: vi/vo=1/(1+[I]/IC50)
Tripeptide inhibition was globally fit to the following noncompetitive equation: v= Vmax[S]/[S](1+[I]/Kii)+Km(1+[I]/Ki)
Inhibitor cross-competition was globally fit to: 1/vij=1/v0(1+[I]/Ki+[J]/Kj+[I][J]/αKiKj)

**Q.** With “AFA: synthetic tripeptide predicted to clash with the S' pocket binding site” as the substance, how does the “inhibition of γ-secretase activity (relative potency in words)” value read?
**A.** Its value is “very weak inhibitor”.

**Q.** How did the “inhibition of γ-secretase activity (relative potency in words)” value turn out when “FAF: synthetic tripeptide of the predicted optimal binding sequence for the large-small-large S1'-S2'-S3' pockets” was run?
**A.** Its value is “more potent inhibitor of γ-secretase activity than any of the naturally occurring APP-derived tripeptides”.
